Publication PMC2787013, “DNA Specificity Determinants Associate with Distinct Transcription Factor Functions”
Where a chain is given by its changes, count along the chain named.

B1: ETS consensus CCGGAAGT (dsDNA)
DNA 1: GGCCAAGCCGGAAGTGTGTGGTAAACACTTT
DNA 2: AAAGTGTTTACCACACACTTCCGGCTTGGCC
B2: A to T variant CCGGATGT (dsDNA)
DNA 1: B1 DNA 1 with A13T
DNA 2: B1 DNA 2 with T19A
B3: C to A variant CAGGAAGT (dsDNA)
DNA 1: B1 DNA 1 with C9A
DNA 2: B1 DNA 2 with G23T
B4: double variant CAGGATGT (dsDNA)
DNA 1: B1 DNA 1 with C9A, A13T
DNA 2: B1 DNA 2 with T19A, G23T

Legend:
Assay in all cases: EMSA; Protein 3-fold dilutions with 1e-11 (M) 32P-dsDNA, 30 min on ice, 6% polyacrylamide gel; binding buffer as in earlier paper (not given); protein dialysis buffer 10 mM Tris pH 7.9, 0.5 mM EDTA, 50 mM KCl, 1 mM DTT, 10% glycerol
Conditions in all cases: protein: recombinant; tags: N-terminal 6xHis (pET28a); label: 32P; (only one strand given)
ETS1 (p51) [1] = biological target: T1, ETS1 (p51) (human, UniProt P14921 1-441)
T1 sequence: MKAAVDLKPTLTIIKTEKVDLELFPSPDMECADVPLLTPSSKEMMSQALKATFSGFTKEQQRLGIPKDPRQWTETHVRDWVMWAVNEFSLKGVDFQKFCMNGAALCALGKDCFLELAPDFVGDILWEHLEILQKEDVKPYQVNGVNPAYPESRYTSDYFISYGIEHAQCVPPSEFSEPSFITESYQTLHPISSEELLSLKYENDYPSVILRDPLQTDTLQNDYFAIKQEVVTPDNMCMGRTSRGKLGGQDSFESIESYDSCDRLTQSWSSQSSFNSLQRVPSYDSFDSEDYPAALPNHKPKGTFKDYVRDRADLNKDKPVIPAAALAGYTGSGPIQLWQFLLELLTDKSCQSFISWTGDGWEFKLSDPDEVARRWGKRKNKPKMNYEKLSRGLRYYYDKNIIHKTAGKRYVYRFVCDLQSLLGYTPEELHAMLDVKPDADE

ELF1 [2] = biological target: T2, ELF1 (human, UniProt P32519 1-619)
ETS1 (p51) [3] = biological target: T1, ETS1 (p51); remark: listed apart in the source
ELF1 [4] = biological target: T2, ELF1; remark: listed apart in the source

T2 sequence (P32519 whole entry): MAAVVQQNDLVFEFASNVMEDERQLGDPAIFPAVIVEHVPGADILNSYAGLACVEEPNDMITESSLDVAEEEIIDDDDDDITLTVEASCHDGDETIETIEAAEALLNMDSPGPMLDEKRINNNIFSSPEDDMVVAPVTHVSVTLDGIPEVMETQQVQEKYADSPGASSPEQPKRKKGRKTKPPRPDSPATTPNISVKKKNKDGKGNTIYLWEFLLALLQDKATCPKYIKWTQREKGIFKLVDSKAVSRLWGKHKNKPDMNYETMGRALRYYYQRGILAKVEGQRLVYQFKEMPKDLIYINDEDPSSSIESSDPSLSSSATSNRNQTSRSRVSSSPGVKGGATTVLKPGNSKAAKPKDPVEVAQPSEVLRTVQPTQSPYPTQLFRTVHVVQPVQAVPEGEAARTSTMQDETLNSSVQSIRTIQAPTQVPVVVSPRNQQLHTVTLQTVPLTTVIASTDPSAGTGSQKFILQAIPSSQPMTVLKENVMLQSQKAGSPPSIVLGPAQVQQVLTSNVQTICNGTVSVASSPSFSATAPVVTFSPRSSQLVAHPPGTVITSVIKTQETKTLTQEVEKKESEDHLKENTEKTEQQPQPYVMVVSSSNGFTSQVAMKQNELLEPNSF

Binder	Kd (ETS1 (p51) [1]) [nM]	Kd (ELF1 [2]) [nM]	binding signal (ETS1 (p51) [3])	binding signal (ELF1 [4])
B1	1.7	0.17	–	–
B2	–	–	1 fold decrease in affinity vs N1	3.6 fold decrease in affinity vs N1
B3	–	–	1.5 fold decrease in affinity vs N1	1.9 fold decrease in affinity vs N1
B4	–	–	2.4 fold decrease in affinity vs N1	18.3 fold decrease in affinity vs N1
